Measured values taken from IntAct's records for PubMed 19013276.

B1: Cell cycle serine/threonine-protein kinase CDC5/MSD2 (Saccharomyces cerevisiae), P32562 (parent)
chain: MSLGPLKAINDKQLNTRSKLVHTPIKGNTADLVGKENHFKQTKRLDPNNDHHHQPAQKKKREKLSALCKTPPSLIKTRGKDYHRGHFLGEGGFARCFQIKDDSGEIFAAKTVAKASIKSEKTRKKLLSEIQIHKSMSHPNIVQFIDCFEDDSNVYILLEICPNGSLMELLKRRKVLTEPEVRFFTTQICGAIKYMHSRRVIHRDLKLGNIFFDSNYNLKIGDFGLAAVLANESERKYTICGTPNYIAPEVLMGKHSGHSFEVDIWSLGVMLYALLIGKPPFQARDVNTIYERIKCRDFSFPRDKPISDEGKILIRDILSLDPIERPSLTEIMDYVWFRGTFPPSIPSTVMSEAPNFEDIPEEQSLVNFKDCMEKSLLLESMSSDKIQRQKRDYISSIKSSIDKLEEYHQNRPFLPHSLSPGGTKQKYKEVVDIEAQRRLNDLAREARIRRAQQAVLRKELIATSTNVIKSEISLRILASECHLTLNGIVEAEAQYKMGGLPKSRLPKIKHPMIVTKWVDYSNKHGFSYQLSTEDIGVLFNNGTTVLRLADAEEFWYISYDDREGWVASHYLLSEKPRELSRHLEVVDFFAKYMKANLSRVSTFGREEYHKDDVFLRRYTRYKPFVMFELSDGTFQFNFKDHHKMAISDGGKLVTYISPSHESTTYPLVEVLKYGEIPGYPESNFREKLTLIKEGLKQKSTIVTVD
partner: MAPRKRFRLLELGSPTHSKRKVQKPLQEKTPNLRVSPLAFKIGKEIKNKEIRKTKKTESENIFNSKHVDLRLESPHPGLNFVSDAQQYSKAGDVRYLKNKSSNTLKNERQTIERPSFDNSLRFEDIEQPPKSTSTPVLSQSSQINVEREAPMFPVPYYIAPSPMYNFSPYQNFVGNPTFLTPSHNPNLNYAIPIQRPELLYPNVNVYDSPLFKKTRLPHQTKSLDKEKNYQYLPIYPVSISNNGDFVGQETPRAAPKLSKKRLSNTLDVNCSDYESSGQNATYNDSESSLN

Variants of: B1
Details: with spo13_yeast SPO13, P23624

Variant | effect of a mutation on the interaction
W517A;V518A;L530A | decreasing interaction

Variants of: B1
Details: with spo13_yeast SPO13, P23624
Remark: another data set of the same source

Variant | effect of a mutation on the interaction
W517A;V518A;L530A | decreasing interaction
